The test system of experiment [1] is HCC (Huh-7) mouse xenograft tumor tissue. Description: Staining of hepatocellular carcinoma mouse xenograft tumor tissue sections. The conditions noted are these: 50 mg/kg IKE once daily IP 2 days. Details: species or system human. As to the method:
Tumor tissues were fixed in 4% paraformaldehyde (PFA) for 24 h at 4° C. followed by washing with PBS three times. The tissues were perfused in 30% sucrose for 24 h at 4° C. for cryo-protection. The samples were embedded in OCT cryostat sectioning medium, and then moved directly into a cryostat. After equilibration of temperature, frozen tumor tissues were cut into 5 μm thick sections. Tissue sections were mounted on to poly-L-lysine coated slides by placing the cold sections onto warm slides. Slides were stored at −80° C. until staining. For staining, slides were warmed to room temperature followed by washing with PBS twice. A hydrophobic barrier pen was used to draw a circle on each slide. The slides were permeabilized with PBS with 0.4% Triton X-100 (PBT) twice before non-specific-binding blocking by incubating the sections with 10% goat serum (ThermoFisher 50197Z) for 30 min at room temperature. […] All images were captured on a Zeiss LSM 800 confocal microscope at Plan-Apochromat 63x/1.40 Oil DIC objective with constant laser intensity for all analyzed samples. The intensity above threshold of the fluorescent signal of the bound antibodies was analyzed using NIH ImageJ software (ImageJ, RRID:SCR_003070). Data were expressed as fold change comparing with the vehicle. […]

Experiment [2] addresses T1, TfR1 in mouse liver tissue (Mus musculus, UniProt Q62351).
T1 construct: from tissue; host or cells: normal mouse liver, frozen sections
Kind of experiment: Staining of normal mouse liver frozen tissue. Particulars: frozen tissue samples. As to the method:
(§1) FIGS. 12A-12B show 3F3 FMA staining in human Huntington's disease brains and mouse tissues. In FIG. 12A, human HD and control brain tissues were fixed in 4% PFA for 24 h, perfused in 30% sucrose for 24 h, and stained with DAPI (nuclei, blue) and 3F3 FMA (red). The expression level of TfR1 is low. There was no difference between HD and control groups. In FIG. 12B, mouse liver tissues and mouse GBM tissues were fixed and stained with DAPI (nuclei, blue) and 3F3 FMA (red). 3F3 FMA was able to recognize mouse TfR1.

Experiment [3] addresses T2, TfR1 in human brain tissue (Homo sapiens, UniProt P02786).
T2 construct: human HD and control brain tissues were fixed in 4% PFA for 24 h; from tissue; host or cells: post-mortem human brain (Huntington's disease and control)
Description: Staining of post-mortem human brain tissues. Particulars: Huntington's disease and control. The protocol:
as §1
Tumor tissues were fixed in 4% paraformaldehyde (PFA) for 24 h at 4° C. followed by washing with PBS three times. The tissues were perfused in 30% sucrose for 24 h at 4° C. for cryo-protection. The samples were embedded in OCT cryostat sectioning medium, and then moved directly into a cryostat. After equilibration of temperature, frozen tumor tissues were cut into 5 μm thick sections. Tissue sections were mounted on to poly-L-lysine coated slides by placing the cold sections onto warm slides. […] All images were captured on a Zeiss LSM 800 confocal microscope at Plan-Apochromat 63x/1.40 Oil DIC objective with constant laser intensity for all analyzed samples. The intensity above threshold of the fluorescent signal of the bound antibodies was analyzed using NIH ImageJ software (ImageJ, RRID:SCR_003070). Data were expressed as fold change comparing with the vehicle.

In experiment [4] the target is T3, transferrin receptor protein 1 (Homo sapiens, UniProt P02786).
T3 construct: First, we incubated 3F3-FMA with a cell lysate overnight; endogenous in cells; host or cells: HT-1080 (ATCC CRL-7951)
T3 sequence (P02786 whole entry): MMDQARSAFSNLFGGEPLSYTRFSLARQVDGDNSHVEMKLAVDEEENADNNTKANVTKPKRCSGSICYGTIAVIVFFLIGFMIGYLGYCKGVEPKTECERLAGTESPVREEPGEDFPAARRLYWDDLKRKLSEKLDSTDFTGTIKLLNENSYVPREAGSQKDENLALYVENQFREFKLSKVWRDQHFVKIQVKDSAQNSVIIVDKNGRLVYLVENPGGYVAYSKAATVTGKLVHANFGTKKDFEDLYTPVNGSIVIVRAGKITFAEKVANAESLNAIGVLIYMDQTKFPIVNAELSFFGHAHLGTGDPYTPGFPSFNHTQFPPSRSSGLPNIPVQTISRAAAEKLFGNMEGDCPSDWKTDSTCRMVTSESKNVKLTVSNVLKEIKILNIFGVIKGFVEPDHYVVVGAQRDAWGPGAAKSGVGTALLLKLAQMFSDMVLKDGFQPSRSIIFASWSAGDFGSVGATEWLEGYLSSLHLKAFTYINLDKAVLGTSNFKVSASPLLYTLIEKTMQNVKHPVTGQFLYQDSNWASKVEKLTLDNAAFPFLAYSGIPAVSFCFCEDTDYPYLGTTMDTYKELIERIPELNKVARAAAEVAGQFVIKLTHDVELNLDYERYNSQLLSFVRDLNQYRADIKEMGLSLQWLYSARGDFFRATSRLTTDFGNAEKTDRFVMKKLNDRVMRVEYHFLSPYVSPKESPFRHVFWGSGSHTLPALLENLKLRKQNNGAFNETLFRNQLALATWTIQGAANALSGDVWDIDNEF
Description: siRNA knockdown of TfR1 followed by immunofluorescence. It counts as cell-based. The conditions noted are these: HT-1080 cells, siTfR1 vs siNT. The protocol:
10 μM of siRNAs were combined with 250 μl of Opti-MEM serum-free media (Life Technologies 31985-070) in one tube. 6 μl of Lipofectamine RNAiMAX (Thermo Fisher Scientific 13778150) was combined with 250 μl of Opti-Mem media in another tube. They were equilibrated at r.t. for 5 min. Then two tubes were combined, transferred into 6-well plate and incubated at 37° C. for 20 min. 0.25 million HT-1080 cells were then added to 6-well plate and incubated for 48 h. Cells were reseeded in regular media for additional 24 h. Regular IF procedure was then conducted.

“Also recorded” adds a separate entry of the source.

The text below walks through data of patent publication US20220412989A1, “COMPOSITIONS AND METHODS FOR DETECTING CELLS UNDERGOING FERROPTOSIS USING AN ANTIBODY” (THE TRUSTEES OF COLUMBIA UNIVERSITY IN THE CITY OF NEW YORK, priority 2020, published 2022).

T1 sequence (Q62351 whole entry): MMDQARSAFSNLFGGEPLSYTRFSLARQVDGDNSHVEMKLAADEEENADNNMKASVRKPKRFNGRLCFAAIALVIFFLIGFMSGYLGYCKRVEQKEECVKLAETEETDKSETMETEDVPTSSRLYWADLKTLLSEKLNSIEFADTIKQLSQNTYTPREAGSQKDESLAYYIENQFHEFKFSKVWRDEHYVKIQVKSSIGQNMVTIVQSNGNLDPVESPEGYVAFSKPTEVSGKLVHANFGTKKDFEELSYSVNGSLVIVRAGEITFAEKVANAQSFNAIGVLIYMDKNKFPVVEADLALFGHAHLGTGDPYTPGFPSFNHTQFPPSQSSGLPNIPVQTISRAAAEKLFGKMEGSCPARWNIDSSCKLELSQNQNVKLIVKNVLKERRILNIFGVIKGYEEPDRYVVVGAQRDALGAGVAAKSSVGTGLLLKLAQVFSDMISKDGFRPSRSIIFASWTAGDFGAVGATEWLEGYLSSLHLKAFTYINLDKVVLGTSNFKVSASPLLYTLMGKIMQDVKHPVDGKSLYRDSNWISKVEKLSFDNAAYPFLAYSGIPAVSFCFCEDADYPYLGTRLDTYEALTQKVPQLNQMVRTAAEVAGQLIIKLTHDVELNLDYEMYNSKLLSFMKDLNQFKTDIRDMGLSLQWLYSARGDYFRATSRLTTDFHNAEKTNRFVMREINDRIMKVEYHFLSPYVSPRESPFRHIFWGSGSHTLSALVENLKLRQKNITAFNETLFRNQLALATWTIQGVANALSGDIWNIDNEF
T2 sequence (P02786 whole entry): as the sequence (P02786 whole entry) above

B1: 3F3-FMA: murine monoclonal IgG1 raised against ferroptotic membrane fractions; antigen is human transferrin receptor protein 1 (TfR1) (antibody, V domains shown)
VH: EVLLQQSGTELVRPGALVKLSCKASGFNIQDLYIHWVKQRPEQGLEWIGWIDPETDNTIYDPKFQGKASITADTSSNTAYLQLSSLTSEDTAMYYCSTGLLQWYFDVWGAGTAVTVSS
VL: DIVMTQSPSSLAMSIGQKVTMRCKSSQSLLNSYNQKNCLAWYQQKPGQSPKLLLYFVSTRESGVPDRFIGSGSGTDFTLTISSVQAEDLADYFCQQHYSTPLTFGAGTKLELK
On to B1, for which the “staining intensity, IKE-treated vs vehicle samples” value in experiment [1] is listed as “increased intensities; also recorded: difference in intensities”. In experiment [2], the “staining signal in normal mouse liver” value is reported as “robust signal”. Further, the “staining signal in human brain tissue” value in experiment [3] was “lack of signal”. The “staining in siTfR1-transfected cells” value in experiment [4] is recorded as “wasn't any detectable staining”.
